Substitutions are numbered along the chain they refer to.
B1: 31E11 (antibody, V domains shown)
VH: QVQLVESGGGLVKPGGSLRLSCAASGFTFSDYYMSWIRQAPGKGLEWVSYISISGSTIYYADSVKGRFTISRDNAKNSLYLQMNSLRAEDTAVYYCARDDFWSGYYFNWFDPWGQGTLVTVSS
VL: DIQMTQSPSSLSASVGDRVTITCRANQTISTFLNWYQQNPGKAPKLLIYAASSLQSGVPSRFSGSGSGTDFTLTISSLQPEDFATYYCQQTYIIPLTFGGGTKVEIK
notes: Fully human mAb from XenoMouse hybridoma, tested as hybridoma supernatant
B2: 32B2 (antibody, V domains shown)
VH: EVQLLESGGGLVQPGGSLRLSCAASGFTFSNYAMSWVRQAPGKGLDWVSAISGRGGSTYYADSVKGRFTISRDNSKNTLFLLMNSLRAEDTAVYYCAKASGDDWGQGTLVTVSS
VL: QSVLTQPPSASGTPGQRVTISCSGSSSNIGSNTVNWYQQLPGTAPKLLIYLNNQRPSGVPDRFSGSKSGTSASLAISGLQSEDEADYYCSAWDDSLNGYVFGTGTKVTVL
notes: as for B1
B3: 32C11 (antibody, V domains shown)
VH: B2 VH with G10T, D46E, G55A, L82Q
VL: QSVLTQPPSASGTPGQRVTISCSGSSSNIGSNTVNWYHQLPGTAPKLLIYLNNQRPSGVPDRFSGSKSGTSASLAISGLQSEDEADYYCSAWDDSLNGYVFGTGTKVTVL
notes: as for B1
B4: 29A11 (antibody, V domains shown)
VH: B2 VH with S35N, D46E, R54G, S57N, F80Y, L82Q, S85R
VL: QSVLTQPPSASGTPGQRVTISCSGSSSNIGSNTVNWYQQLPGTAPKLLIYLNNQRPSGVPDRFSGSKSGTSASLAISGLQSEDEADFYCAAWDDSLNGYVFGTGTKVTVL
notes: as for B1
B5: 30E3 (antibody, V domains shown)
VH: B2 VH with M34L, D46E, R54S, G56R, S57N, I70L, L82Q, D103N
VL: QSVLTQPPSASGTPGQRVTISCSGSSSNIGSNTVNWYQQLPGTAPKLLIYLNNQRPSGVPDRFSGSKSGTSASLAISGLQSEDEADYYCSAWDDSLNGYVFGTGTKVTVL
notes: as for B1
B6: 30H10 (antibody, V domains shown)
VH: B2 VH with D46E, R54S, S57I, L82Q, D103N, T111S
VL: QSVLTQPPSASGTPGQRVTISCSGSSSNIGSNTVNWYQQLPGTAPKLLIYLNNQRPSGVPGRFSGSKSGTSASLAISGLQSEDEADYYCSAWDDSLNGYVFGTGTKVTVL
notes: as for B1
B7: 30F6 (antibody, V domains shown)
VH: QVQLVESGGGVVQPGRSLRLSCAASGFTFSTYGMHWVRQAPGKGLEWVAVIWYDGSNKYYADSVKGRFTISRDNSKNTLYLQMNSLRAEDTAVYYCACSYWNDDYYYGMDVWGQGTTVTVSS
VL: DIQMTQSPSSLSASVGDRVIITCRASQNISSYLIWYQQKPGKAPNLLIHTTSSLQRGVPSRFSGSGSGTDFTLTISSLQPEDFATYYCQQSYSAPLTFGGGTKVEIK
notes: as for B1
B8: 29H3 (antibody, V domains shown)
VH: QVQLVQSGAEVKKPGASVKVSCKASGYTFTSYDINWVRQATGQGLEWMGWMNPNSGKTGYAQKFQGRVTMTRNTSINTAYMELSSLRSEDTAVYYCARGGYSNLGWFDPWGQGTLVTVSS
VL: DIQMTQSPSSVSASVGDRVTITCRASQGISSWLVWYHQKPGKAPKLLIYGASSLQSGVPSRFSGSGSGTDFTLTISSLQPEDFATYYCQQANNFPFTFGPGTKVDIK
notes: as for B1
B9: 29F7 (antibody, V domains shown)
VH: B8 VH with N73S, N77S
VL: B8 VL with S12F, S31T, V34A, H37Q, L46F, G50A, E81D
notes: as for B1
B10: 33D5 (antibody, V domains shown)
VH: B8 VH with T30G, K57N, M70L, N77R, A79V, T114S
VL: B8 VL with A13V, V34A, H37Q, G50A, N93S
notes: as for B1

target: KDR endogenously expressed on human umbilical vein endothelial cells (HUVEC) (human, UniProt P35968 20-1356); assay: cell-based or functional assay
Sequence (P35968 20-1356): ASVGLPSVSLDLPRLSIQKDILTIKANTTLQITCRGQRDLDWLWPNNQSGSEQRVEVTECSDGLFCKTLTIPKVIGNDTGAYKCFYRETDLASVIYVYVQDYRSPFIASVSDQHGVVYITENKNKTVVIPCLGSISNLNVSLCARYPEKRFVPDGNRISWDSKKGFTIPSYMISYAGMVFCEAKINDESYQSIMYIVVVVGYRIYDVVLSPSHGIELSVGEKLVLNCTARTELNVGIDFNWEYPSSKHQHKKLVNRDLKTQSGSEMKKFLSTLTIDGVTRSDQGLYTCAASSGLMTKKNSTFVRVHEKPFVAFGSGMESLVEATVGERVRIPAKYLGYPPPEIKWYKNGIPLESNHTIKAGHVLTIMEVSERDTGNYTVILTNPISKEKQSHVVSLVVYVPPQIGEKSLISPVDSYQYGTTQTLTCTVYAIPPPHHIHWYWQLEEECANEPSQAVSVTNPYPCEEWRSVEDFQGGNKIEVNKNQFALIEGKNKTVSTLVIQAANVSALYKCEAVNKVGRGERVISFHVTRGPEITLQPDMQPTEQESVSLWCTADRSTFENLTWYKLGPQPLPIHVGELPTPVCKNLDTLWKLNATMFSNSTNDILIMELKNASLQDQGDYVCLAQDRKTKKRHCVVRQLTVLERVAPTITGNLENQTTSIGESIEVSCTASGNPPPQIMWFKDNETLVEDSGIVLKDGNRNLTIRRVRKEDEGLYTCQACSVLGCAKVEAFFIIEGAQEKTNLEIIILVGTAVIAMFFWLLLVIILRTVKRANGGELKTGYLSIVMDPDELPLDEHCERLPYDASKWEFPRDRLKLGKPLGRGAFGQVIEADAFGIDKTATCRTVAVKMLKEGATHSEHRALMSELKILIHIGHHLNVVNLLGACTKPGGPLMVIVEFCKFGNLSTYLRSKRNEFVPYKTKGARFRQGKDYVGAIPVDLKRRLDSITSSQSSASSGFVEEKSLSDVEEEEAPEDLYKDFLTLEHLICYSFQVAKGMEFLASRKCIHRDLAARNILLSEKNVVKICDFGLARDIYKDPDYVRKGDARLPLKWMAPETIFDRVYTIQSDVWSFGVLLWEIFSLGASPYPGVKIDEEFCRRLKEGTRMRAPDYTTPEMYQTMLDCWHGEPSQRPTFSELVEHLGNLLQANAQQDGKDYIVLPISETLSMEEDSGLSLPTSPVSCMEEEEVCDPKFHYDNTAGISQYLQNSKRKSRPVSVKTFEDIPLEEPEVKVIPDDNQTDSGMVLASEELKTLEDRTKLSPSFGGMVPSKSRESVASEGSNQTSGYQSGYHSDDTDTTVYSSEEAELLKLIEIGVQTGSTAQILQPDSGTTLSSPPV

Binder | VEGF-E-mediated Survival % Inhibition (Average) [%] | VEGF-E-mediated Survival % Inhibition (n = 1) [%] | VEGF-E-mediated Survival % Inhibition (n = 2) [%]
B1 | 55 | 56 | 54
B2 | -6 | -2 | -9
B3 | 6 | 5 | 7
B4 | 5 | 8 | 1
B5 | -14 | -21 | -7
B6 | -10 | -21 | 2
B7 | 37 | 31 | 43
B8 | -15 | -19 | -11
B9 | 11 | 15 | 6
B10 | 0 | -2 | 2

target: T1, soluble KDR extracellular domain (ECD) (Calbiochem) (human, UniProt P35968 20-764); assay: High Antigen ELISA, KDR coat 500 ng/mL, supernatant 1:25
T1 construct: extracellular domain; Bought protein; also called KDR-ECD; VEGF Receptor 2 D1-7, Cat. #676490
T1 sequence (P35968 20-764): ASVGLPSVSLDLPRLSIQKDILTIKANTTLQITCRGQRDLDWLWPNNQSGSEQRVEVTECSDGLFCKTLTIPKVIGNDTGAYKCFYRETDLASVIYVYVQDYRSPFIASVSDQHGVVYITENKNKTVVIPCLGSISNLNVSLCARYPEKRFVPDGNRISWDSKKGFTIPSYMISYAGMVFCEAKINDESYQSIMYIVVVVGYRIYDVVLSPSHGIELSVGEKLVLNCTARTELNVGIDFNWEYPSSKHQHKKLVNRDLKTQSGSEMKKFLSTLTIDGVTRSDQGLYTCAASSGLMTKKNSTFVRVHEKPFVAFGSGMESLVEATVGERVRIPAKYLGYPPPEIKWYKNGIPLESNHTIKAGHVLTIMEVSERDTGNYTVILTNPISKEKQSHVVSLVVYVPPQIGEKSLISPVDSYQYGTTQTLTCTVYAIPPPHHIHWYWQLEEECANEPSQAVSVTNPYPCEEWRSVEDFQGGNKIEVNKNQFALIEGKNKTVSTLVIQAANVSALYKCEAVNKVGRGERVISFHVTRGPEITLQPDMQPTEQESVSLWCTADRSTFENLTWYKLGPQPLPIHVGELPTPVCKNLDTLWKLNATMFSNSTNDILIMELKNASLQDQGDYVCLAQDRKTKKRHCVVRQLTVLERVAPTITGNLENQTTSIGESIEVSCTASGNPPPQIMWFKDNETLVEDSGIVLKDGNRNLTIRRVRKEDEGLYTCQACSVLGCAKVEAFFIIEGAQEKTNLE
Experimental: (§1) ELISA plates were coated with a greater amount of KDR (at 500 ng/mL) in comparison with the Limited Antigen Quantitation assay described below. Sample containing antibody (Ab) was titrated on the KDR-coated ELISA plates and was incubated overnight at 4° C. to allow Ab binding to approach equilibrium. Titration of Ab in sample covered a dilution range of 1:25 to 1:18,225. A standard curve of KDR-specific antibody of known concentration was used to define the linear range of the assay. Data within the linear range were used to derive the relative concentration of KDR-specific Ab in each titrated sample. The high KDR concentration and the overnight incubation limited the effect of Ab affinity, allowing quantitation of the relative amount of KDR-specific Ab present in each sample.

Binder | ELISA reading
B1 | 4.48
B2 | 6
B3 | 4.36
B4 | 4.66
B5 | 6
B6 | 4.42
B7 | 3.04
B8 | 4.52
B9 | 4.42
B10 | 4.61

target: T1, soluble KDR extracellular domain (ECD) …; assay: High Antigen ELISA, KDR coat 500 ng/mL, supernatant 1:75
Experimental: as §1

Binder | ELISA reading
B1 | 6
B2 | 6
B3 | 6
B4 | 6
B5 | 4.78
B6 | 6
B7 | 3.12
B8 | 4.96
B9 | 4.49
B10 | 4.56

target: T1, soluble KDR extracellular domain (ECD) …; assay: High Antigen ELISA, KDR coat 500 ng/mL, supernatant 1:225
Experimental: as §1

Binder | ELISA reading
B1 | 4.61
B2 | 6
B3 | 4.28
B4 | 6
B5 | 4.45
B6 | 6
B7 | 2.42
B8 | 4.29
B9 | 4.26
B10 | 4.78

target: T1, soluble KDR extracellular domain (ECD) …; assay: High Antigen ELISA, KDR coat 500 ng/mL, supernatant 1:675
Experimental: as §1

Binder | ELISA reading
B1 | 3.6
B2 | 6
B3 | 2.02
B4 | 5.09
B5 | 2.12
B6 | 4.61
B7 | 0.93
B8 | 2.83
B9 | 3.76
B10 | 6

target: T1, soluble KDR extracellular domain (ECD) …; assay: High Antigen ELISA, KDR coat 500 ng/mL, supernatant 1:2025
Experimental: as §1

Binder | ELISA reading
B1 | 1.81
B2 | 3.33
B3 | 0.82
B4 | 4.33
B5 | 0.86
B6 | 2.52
B7 | 0.35
B8 | 1.42
B9 | 1.68
B10 | 3.65

target: T1, soluble KDR extracellular domain (ECD) …; assay: High Antigen ELISA, KDR coat 500 ng/mL, supernatant 1:6075
Experimental: as §1

Binder | ELISA reading
B1 | 0.62
B2 | 1.54
B3 | 0.27
B4 | 2.16
B5 | 0.32
B6 | 1.18
B7 | 0.16
B8 | 0.47
B9 | 0.57
B10 | 1.7

target: T1, soluble KDR extracellular domain (ECD) …; assay: Limited Antigen ELISA, KDR coat 25 ng/mL, supernatant 1:25
Experimental: (§2) Samples containing one concentration of antibody (Ab) (1:25 dilution) were incubated overnight to allow Ab binding to approach equilibrium. The low antigen concentration limited the effect of antibody concentration, allowing ranking of the antibodies based on their relative affinity.

Binder | ELISA reading
B1 | 1.24
B2 | 1.69
B3 | 1.12
B4 | 1.9
B5 | 1.37
B6 | 1.18
B7 | 0.31
B8 | 1.03
B9 | 2.19
B10 | 2.2

target: T1, soluble KDR extracellular domain (ECD) …; assay: Limited Antigen ELISA, KDR coat 50 ng/mL, supernatant 1:25
Experimental: as §2

Binder | ELISA reading
B1 | 2.37
B2 | 2.9
B3 | 2.48
B4 | 3.43
B5 | 2.71
B6 | 2.21
B7 | 0.52
B8 | 2.13
B9 | 3.54
B10 | 3.81

target: T1, soluble KDR extracellular domain (ECD) …; assay: High Antigen ELISA, KDR coat 500 ng/mL, supernatant 1:18,225
Experimental: as §1

Binder | ELISA reading
B1 | 0.31
B2 | 0.8
B3 | 0.14
B4 | 0.99
B5 | 0.18
B6 | 0.64
B7 | 0.09
B8 | 0.21
B9 | 0.22
B10 | 0.87

target: T1, soluble KDR extracellular domain (ECD) …; assay: Limited Antigen ELISA, KDR coat 12.5 ng/mL, supernatant 1:25
Experimental: as §2

Binder | ELISA reading
B1 | 0.68
B2 | 0.86
B3 | 0.69
B4 | 1.05
B5 | 0.73
B6 | 0.52
B7 | 0.25
B8 | 0.4
B9 | 1
B10 | 1.32

target: T1, soluble KDR extracellular domain (ECD) …; assay: Limited Antigen ELISA, KDR coat 6.25 ng/mL, supernatant 1:25
Experimental: as §2

Binder | ELISA reading
B1 | 0.39
B2 | 0.42
B3 | 0.35
B4 | 0.59
B5 | 0.43
B6 | 0.31
B7 | 0.13
B8 | 0.24
B9 | 0.51
B10 | 0.61

target: T1, soluble KDR extracellular domain (ECD) …; assay: Limited Antigen ELISA, KDR coat 3.125 ng/mL, supernatant 1:25
Experimental: as §2

Binder | ELISA reading
B1 | 0.2
B2 | 0.25
B3 | 0.2
B4 | 0.3
B5 | 0.24
B6 | 0.17
B7 | 0.1
B8 | 0.16
B9 | 0.25
B10 | 0.33
